Experimental data taken from PMC8326426, “Resveratrol-induced Sirt1 phosphorylation by LKB1 mediates mitochondrial metabolism” (The Journal of Biological Chemistry, 2021).

T1: His-Sirt1 core domain, aa 234 to 510 (human, UniProt Q96EB6 234-510)
T1 construct: Sirt1, human, deacetylase core domain, aa 234 to 510; His-tagged Sirt1 was made by subcloning human Sirt1 cDNA into pET28a; also called His-tagged Sirt1 core domain; source: E. coli Rosetta (DE3), eluted
T1 sequence (looked up): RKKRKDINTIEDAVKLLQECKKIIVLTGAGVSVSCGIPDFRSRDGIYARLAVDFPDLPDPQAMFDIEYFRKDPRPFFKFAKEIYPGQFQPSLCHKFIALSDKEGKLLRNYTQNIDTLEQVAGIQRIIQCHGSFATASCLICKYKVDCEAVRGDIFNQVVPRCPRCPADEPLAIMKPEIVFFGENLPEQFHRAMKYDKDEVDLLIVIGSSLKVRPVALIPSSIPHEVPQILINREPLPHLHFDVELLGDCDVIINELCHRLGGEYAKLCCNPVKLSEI

T2: MBP-Sirt1 core domain, aa 234 to 510 (human, UniProt Q96EB6 234-510)
T2 construct: Sirt1, human, deacetylase core domain, aa 234 to 510; MBP-tagged Sirt1 was made by subcloning human Sirt1 cDNA into pMal-c2X; also called MBP-tagged core domain of Sirt1; source: E. coli, purified
T2 sequence (looked up): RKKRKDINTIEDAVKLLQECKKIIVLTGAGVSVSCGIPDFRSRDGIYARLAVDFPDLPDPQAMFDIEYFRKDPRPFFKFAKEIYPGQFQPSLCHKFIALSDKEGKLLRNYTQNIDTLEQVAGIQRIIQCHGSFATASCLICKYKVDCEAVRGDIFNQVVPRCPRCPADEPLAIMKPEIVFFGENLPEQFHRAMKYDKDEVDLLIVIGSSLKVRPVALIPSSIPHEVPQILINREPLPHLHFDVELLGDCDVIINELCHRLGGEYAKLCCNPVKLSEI


Tests used:
[1] = target: T1, His-Sirt1 core domain, aa 234 to 510; test: pull-down; competitive binding: 2 ug GST-LZ of DBC1 from E. coli, 2 ug eluted His-Sirt1 core domain, with or without 2 ug eluted C-terminal truncation of Sirt1 (WT or mutants), 4 h; bound fraction immunoblotted; conditions: both partners purified
[2] = target: T2, MBP-Sirt1 core domain, aa 234 to 510; test: pull-down; MBP pull-down: MBP-Sirt1 core domain purified from E. coli incubated with eluted GST-Sirt1 C terminus (WT, 3A or 3D); bound fraction immunoblotted; conditions: both partners purified

| Binder | binding result [1] | binding result [2] |
| --- | --- | --- |
| C-terminal truncation of Sirt1, WT (eluted competitor), aa 511 to 747 (domain or fragment, human, UniProt Q96EB6 511-747, looked up, Sirt1, human, C terminus, aa 511 to 747; the methods name GST- and His-tagged Sirt1 truncations from E. coli; also called the C terminus of Sirt1; WT C terminus; source: eluted) TEKPPRTQKELAYLSELPPTPLHVSEDSSSPERTSPPDSSVIVTLLDQAAKSNDDLDVSESKGCMEEKPQEVQTSRNVESIAEQMENPDLKNVGSSTGEKNERTSVAGTVRKCWPNRVAKEQISRRLDGNQYLFLPPNRYIFHGAEVYSDSEDDVLSSSSCGSNSDSGTCQSPSLEEPMEDESEIEEFYNGLEDEPDVPERAGGAGFGTDGDDQEAINEAISVKQEVTDMNYPSNKS | binds |  |
| GST-Sirt1 WT (C terminus), aa 511 to 747 (domain or fragment, human, UniProt Q96EB6 511-747, looked up, Sirt1, human, C terminus, aa 511 to 747; GST-tagged Sirt1 was made by subcloning human Sirt1 cDNA into pGEX-6p-1; also called GST-Sirt1-C; GST-tagged C terminus of Sirt1; source: E. coli Rosetta (DE3), purified (glutathione-Sepharose 4B, eluted with reduced glutathione)) TEKPPRTQKELAYLSELPPTPLHVSEDSSSPERTSPPDSSVIVTLLDQAAKSNDDLDVSESKGCMEEKPQEVQTSRNVESIAEQMENPDLKNVGSSTGEKNERTSVAGTVRKCWPNRVAKEQISRRLDGNQYLFLPPNRYIFHGAEVYSDSEDDVLSSSSCGSNSDSGTCQSPSLEEPMEDESEIEEFYNGLEDEPDVPERAGGAGFGTDGDDQEAINEAISVKQEVTDMNYPSNKS |  | binds |

The remaining lines, values ahead:

| binding result [1] | binding result [2] | Binder |
| --- | --- | --- |
| binds |  | LQRRYRSLLVPSDFLSVHLSWL (domain or fragment, UniProt Q8N163 243-264, looked up, DBC1 (Deleted in Breast Cancer 1), leucine zipper, aa 243 to 264; also called GST-LZ; DBC1 LZ domain; source: E. coli, purified) [GST-tagged LZ (leucine-zipper) domain of DBC1, aa 243 to 264] |
|  | binds | GST-Sirt1 3A mutant (C terminus), aa 511 to 747 (domain or fragment, human, UniProt Q96EB6 511-747, looked up, Sirt1, human, C terminus, aa 511 to 747, Ser615, Ser669 and Ser732 replaced by Ala; source: E. coli Rosetta (DE3), purified (glutathione-Sepharose 4B, eluted with reduced glutathione)) TEKPPRTQKELAYLSELPPTPLHVSEDSSSPERTSPPDSSVIVTLLDQAAKSNDDLDVSESKGCMEEKPQEVQTSRNVESIAEQMENPDLKNVGSSTGEKNERTAVAGTVRKCWPNRVAKEQISRRLDGNQYLFLPPNRYIFHGAEVYSDSEDDVLSSASCGSNSDSGTCQSPSLEEPMEDESEIEEFYNGLEDEPDVPERAGGAGFGTDGDDQEAINEAIAVKQEVTDMNYPSNKS |
|  | binds | GST-Sirt1 3D mutant (C terminus), aa 511 to 747 (domain or fragment, human, UniProt Q96EB6 511-747, looked up, Sirt1, human, C terminus, aa 511 to 747, Ser615, Ser669 and Ser732 replaced by Asp; source: E. coli Rosetta (DE3), purified (glutathione-Sepharose 4B, eluted with reduced glutathione)) TEKPPRTQKELAYLSELPPTPLHVSEDSSSPERTSPPDSSVIVTLLDQAAKSNDDLDVSESKGCMEEKPQEVQTSRNVESIAEQMENPDLKNVGSSTGEKNERTDVAGTVRKCWPNRVAKEQISRRLDGNQYLFLPPNRYIFHGAEVYSDSEDDVLSSDSCGSNSDSGTCQSPSLEEPMEDESEIEEFYNGLEDEPDVPERAGGAGFGTDGDDQEAINEAIDVKQEVTDMNYPSNKS |
| binds |  | C-terminal truncation of Sirt1, 3D mutant (eluted competitor), aa 511 to 747 (domain or fragment, human, UniProt Q96EB6 511-747, looked up, Sirt1, human, C terminus, aa 511 to 747, Ser615, Ser669 and Ser732 replaced by Asp; also called 3D C terminus; source: eluted) TEKPPRTQKELAYLSELPPTPLHVSEDSSSPERTSPPDSSVIVTLLDQAAKSNDDLDVSESKGCMEEKPQEVQTSRNVESIAEQMENPDLKNVGSSTGEKNERTDVAGTVRKCWPNRVAKEQISRRLDGNQYLFLPPNRYIFHGAEVYSDSEDDVLSSDSCGSNSDSGTCQSPSLEEPMEDESEIEEFYNGLEDEPDVPERAGGAGFGTDGDDQEAINEAIDVKQEVTDMNYPSNKS |
